In publication PMC10891604:

Biological target: T1, Lmo1172 (UniProt Q92CN5)
T1 sequence: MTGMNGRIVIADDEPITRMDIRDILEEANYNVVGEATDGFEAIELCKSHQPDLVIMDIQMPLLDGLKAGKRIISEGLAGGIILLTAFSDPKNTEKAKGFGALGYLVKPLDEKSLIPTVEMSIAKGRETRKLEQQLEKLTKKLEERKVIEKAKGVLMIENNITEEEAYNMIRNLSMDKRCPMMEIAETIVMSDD
Test: EMSA
Conditions: EMSA: 200 ng DNA in Beyotime binding buffer, 6% non-denaturing PAGE, ethidium bromide staining; salt, pH and temperature not stated

“CTAATTCACCTCCACTAATATTTTACAACGAATTTACCCATAATAACCAAAAATGTAATGAAATGTCCGATTCTTGTCATGAACGACCAAAAAAGAGCAGAATTGCCGATTTTTTGGATACATTTCAGAATATTCGAACGTGTAAAAAGGACTGTATAATAGGCTTAAAAACCCATATTAATATTTTATTTAAGTGAGTTTATTCATAAAAAAAACCAACTGCAAAAGAATGTTCACAGTTGGCTTTTCCATTTTA (double strand) [P2 promoter DNA]” was tested, and the binding was “no binding”.
